The results in this text go back to the nanobody polyreactivity screen of Harvey et al. (2022).

The nature of the data set: yeast display, Sf9 membrane polyspecificity reagent, FACS + sequencing; frameworks hold sequencing errors. The gist of the method:
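A synthetic nanobody library was expressed on Saccharomyces cerevisiae BJ5465 by galactose induction for 36–48 hours. The library was stained for 1 hour at 4 °C with 10% biotinylated, detergent-solubilized Sf9 membrane reagent and enriched with streptavidin microbeads before FACS. Low and high (top ~1%) gates were set on anti-HA fluorescence for expression and streptavidin fluorescence for reagent binding, and each polyreactivity label reflects the gate of origin.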
Consider “QVQLVESGGGLVQAGGSLRLSCAASGRTFWQYAMGWYRQAPGKERELVAAIRYSGGSTYYADSVKGRFTISRDNAKNTVYLQMNSLKPEDTAVYYCAKRLKPGFYYWGQGTQVTVSS”, for which the “polyreactivity (PSR sort gate)” value is reported as “high polyreactivity”.

For “QVQLVESGGGLVQAGGSLRLSCAASGRTFWRYAMGWYIQAPGKERELVAAISSSGITYYADSVKGRFTISRDNAKNTVYLQMNSLKPEDTAVYYCAVRWGRGFWGQGTQVTVSS”, the “polyreactivity (PSR sort gate)” value is recorded as “high polyreactivity”. To “QVQLVESGGGLVQAGGSLRLSCAASGRTFWRYAMGWYRQAPGKERELVARISSGGSTYYADSVKGRFTISRDNAKNTVYLQINSLKPEDTAVYYCAVLSRHRRVPWYRYNYWGQGTQVTVSS” belongs “low polyreactivity”. In the case of “QVQLVESGGGLVQAGGSLRLSCAASGRTFWRYAMGWYRQAPGKERELVARISWRGGSTNYADSVKGRFTISRDNAKITVYVQMNSLKAEDTAVYYCAADNSRYFLTGYDYWGQGTQVTVSS”, the “polyreactivity (PSR sort gate)” value is “low polyreactivity”. Take “QVQLVESGGGLVQAGGSLRLSCAASGRTFWSNAMGWYIQAPGKERELVAVIYTTTGNTYYADSVKGRFSISRDYAKNTVYLQMNSLKPEDTAVYYCNTRSGAFFLSKPYDYWGQGTQVTVSW”: the “polyreactivity (PSR sort gate)” value is recorded as “low polyreactivity”. “QVQLVESGGGLVQAGGSLRLSCAASGRTFWSNAMGWYRQAPGKERELVADITLSGGRTYYADSVKGRFTISRDNAKNTVYLHMNILKPEDTAVYYCAASATPSGVGMDYWGQGTQVTVSS”: the “polyreactivity (PSR sort gate)” value was “low polyreactivity”. The same measure for “QVQLVESGGGLVQAGGSLRLSCAASGRTFWSNAMGWYRQAPGKERELVATISSGGGNTYYADSVKGRFTISRDNAKNTVYLQLNSLKPEDTAVYYCAATKYRWTYAASFGYWGQGTQVTVSS”: “high polyreactivity”; for “QVQLVESGGGLVQAGGSLRLSCAASGRTFWSNGMGWYRQAPGKERELVASISTSGGRTYYADSVKGRFTISRDNAKNTVYLQMNSLKPEDSAVYYCAARTVYRGRAYDYWGQGTQVTVSS”: “high polyreactivity”. With “QVQLVESGGGLVQAGGSLRLSCAASGRTFWSYAMGWYRQAPGKERELVAAITSSGGTTNYADSVKGRFTISRDNAKNTVYLQMNSLKPEDTAVYYCAAYSWYFGSRYDYWGQGTQVTVSS”, the “polyreactivity (PSR sort gate)” value is on record as “low polyreactivity”. To “QVQLVESGGGLVQAGGSLRLSCAASGRTFWTNAMGWYRQAPGKERELVAAISWTTGSTNYADSVKGRFTISRDNAKNTVYLQMNSLKPEDTAVYYCAAQTYCTFHTYYYWGQGTQVTVSS” belongs “low polyreactivity”; to “QVQLVESGGGLVQAGGSLRLSCAASGRTFWVYAMGWYRQAPGKERELVAGISWDDGSTDYADSVKGRFTISRDNAKNTVYLQMNSLKPEDTAVYYCNAGEYYKGYYYWGQGTQVTVSS”, “low polyreactivity”. To “QVQLVESGGGLVQAGGSLRLSCAASGRTFWVYAMGWYRQAPGKERELVASISWSVGSTYYADSVKGRFTISRDNAKNTVYLQMNSLKPEDTAVYYCNKTTLLTVEYDYWGQGSQVTVSS” belongs “low polyreactivity”; to “QVQLVESGGGLVQAGGSLRLSCAASGRTFWWNAMAWYTQAPGKERELVAVISKRGGTTYYADSVKGRFTNSRDNAKNTVYLPMNSLKPEDTAVYVFAADQQSHYGYWGQGTQVTVSS”, “high polyreactivity”; to “QVQLVESGGGLVQAGGSLRLSCAASGRTFWWYAMGWYRQAPGKERELVAAITWSTGITFYADSVKGRFTISRDNAKNTVYLQMNILKPEDTAVYYCAADTGTFFGGFDYWGQGTQVTVSS”, “high polyreactivity”. To “QVQLVESGGGLVQAGGSLRLSCAASGRTFWWYAMGWYRQAPGKERELVADINGSGGSTYYADSVKGRFTISRDNAKHTVYLQMNSLKPEDTAVYYCAADYYRYIHSVVYSIYDYWGQGTQVTVSS” belongs “low polyreactivity”; to “QVQLVESGGGLVQAGGSLRLSCAASGRTFWWYAMGWYRQEPGKERELVAAITWSGGSTYYADSVKGRFTISRDNAKNTVYLQMNSLKPEDTAVYYCAAYVHNKYDYWGQGTQVTVSS”, “low polyreactivity”. Regarding “QVQLVESGGGLVQAGGSLRLSCAASGRTFWYYAMGGYRQAPGKERELVAYADSVKGRFTISRDNAKNTVYLQMNSLKPEDTAVYYCAVGPVVWFSSSLYYTDYYYWGQGTQVTVSS”, the “polyreactivity (PSR sort gate)” value was “low polyreactivity”. The same measure for “QVQLVESGGGLVQAGGSLRLSCAASGRTFWYYAMGWNRQAPGKERELVAAITRGTSTYADSVKGRFTISRDNAKNTVYLQMNSLKPEDTAVFYCAADTWVTRNSRYDYWGQGTQVTVSS”: “high polyreactivity”. The same measure for “QVQLVESGGGLVQAGGSLRLSCAASGRTFWYYAMGWYRQAPGKEREFVAAISWSGGSTYYADSVKGRFTISRDNAKNTVYLQMNTLKPEDSAVYYCAASPVWWYDYWGQGTQVTVSS”: “low polyreactivity”; for “QVQLVESGGGLVQAGGSLRLSCAASGRTFWYYTMGWYRQAPGKERELVAAISSGGRTNYADSVKGRFTISRDNAKITVYLQMNSLKPEDTAVYYCATSRYYKYVERDYWGQGTQVTVSS”: “high polyreactivity”. “QVQLVESGGGLVQAGGSLRLSCAASGRTFWYYTMGWYRQAPGKERELVAANTSVGSTYYADSVKGRFTISRDNAKNTVYLQMNSLKPEDTAVYYCATLYSYTHQSFDHWGQGTQVTVSS”: the “polyreactivity (PSR sort gate)” value was “high polyreactivity”. To “QVQLVESGGGLVQAGGSLRLSCAASGRTFWYYTMGWYRQAPGKERELVASITYRGGSTYYADSVKGRFTISRDNAKNNVYLQMNSLKPEDTAVYYCNARYKRYSYDYWGQGTQVTVSS” belongs “high polyreactivity”; to “QVQLVESGGGLVQAGGSLRLSCAASGRTFYANAMGWSRQAPGRERELVAAISTGGDGTYYADSVKGRFTISRDYAKITVYLQMNSLKPEDTAVYDCAVRHRASGILYYYWGQGTQVTVSS”, “low polyreactivity”; to “QVQLVESGGGLVQAGGSLRLSCAASGRTFYANAMGWYRQAPGKERELVAAISSNGGSTYYADSVKGRFTISRDNAKNTVYLQMNSLKPEDTAVYYCAVVSRYKAWRKYDYWGQGTQVTVSS”, “high polyreactivity”. To “QVQLVESGGGLVQAGGSLRLSCAASGRTFYAYAMGWSRQAPGKERELVAAITSGASTYYADSVKGRFTISRDNAKNTVYLQMNSLKPEDTAVYYCAKRVRYYKPGYDYWGQGTQVTVSS” belongs “low polyreactivity”. The same measure for “QVQLVESGGGLVQAGGSLRLSCAASGRTFYAYAMGWYRQAPGKERELVAAIRISGTSTYYADSVKGRFTISRDNAKNTVYLQMNSLKPEDTAVYYCARYVKLSGYGFYYWGQGTQVTVSS”: “high polyreactivity”; for “QVQLVESGGGLVQAGGSLRLSCAASGRTFYAYAMGWYRQAPGKERELVAVITRSGGRTNYADSVKGRFTISRDNAKNTVYLQMNSLKPEDTAVYYCAARADWRQVSFYYWGQGTQVTVSS”: “high polyreactivity”. For “QVQLVESGGGLVQAGGSLRLSCAASGRTFYDNAMGWYRQAPGKERELVAAITKSGGRTYYADSVKGRFTISRDNAKNTVYLQMNSLKPEDTAVYYCAASWPNYLYEYWGQGTQVTVSS”, the “polyreactivity (PSR sort gate)” value is “high polyreactivity”.

As for “QVQLVESGGGLVQAGGSLRLSCAASGRTFYDYAMGWYREAPGKEMELVASIRGSDGSTYYADSVKGRFTISRDKAKNTVYLQMNSLKPEDTSVYYCAARGFYGTNGRVYITSYYYLGQGTQVTVSS”, the “polyreactivity (PSR sort gate)” value was “high polyreactivity”. The same measure for “QVQLVESGGGLVQAGGSLRLSCAASGRTFYDYAMGWYRQAPGKERELVAAITYSGGSTFYADSVKGRFTISRDNAKNTVYLQMNSLKPEDTAVYYCAAEVLLLVGAAEYDYWGQGTQVTVSS”: “low polyreactivity”; for “QVQLVESGGGLVQAGGSLRLSCAASGRTFYDYAMGWYRQAPGKESEFVAAITDRDASTSYADSVKGRFTISRDNAKNTVYLQMNSLKPEDTAVYYCAADQYWYKPYVGELYDYDYWGQGTQVTVSS”: “low polyreactivity”; for “QVQLVESGGGLVQAGGSLRLSCAASGRTFYDYARGWYRQGPGKERELVAAITSGGSTNYADSVKGRFTISRDNAKNTVYLQMNSLKPEDTAVYYCAADDCYVWGFDMNYWGQGTQVTVSS”: “high polyreactivity”.

As for “QVQLVESGGGLVQAGGSLRLSCAASGRTFYEYAMGWYRQAPGKERELVAGITSGGSTNYADSVKGRFTISRDNAKNTVYLQMNSLKPEDTAVYYCDASYWGYEYDYWGQGTQVTVSS”, the “polyreactivity (PSR sort gate)” value was “low polyreactivity”.

Consider “QVQLVESGGGLVQAGGSLRLSCAASGRTFYFNAMGWYRQAPRKESELVAAISSGASTYYADSVKGRFTISRDNAKNTVNLQMISLKPEDTAVYYCAAEFWTQWSGYEYWGQGTQVTVSS”, for which the “polyreactivity (PSR sort gate)” value is listed as “high polyreactivity”.

Take “QVQLVESGGGLVQAGGSLRLSCAASGRTFYFNTLGWERQAPGKERELVAAISSGVNTYYADSVKGRFTISRDNAKTTVYLQMNSLKPEDTAVYYCNADYIHTGDYLWYFLYDYWGQGTQVTVSS”: the “polyreactivity (PSR sort gate)” value was “high polyreactivity”. Regarding “QVQLVESGGGLVQAGGSLRLSCAASGRTFYFYAMGWYRQAPGKERELVAAITSRVGRTYYADSVKGRFTISRDTAKNTVYLQMNSLKPEDTAVYDCAAEGVYRMGYWGQGTQVTVSS”, the “polyreactivity (PSR sort gate)” value is listed as “high polyreactivity”. Consider “QVQLVESGGGLVQAGGSLRLSCAASGRTFYFYVMGWYRQAPGKERELVASITSGGSTNYADSVKGRFTISRDNAKNTVYLQMNSLKPEDTAVYYCAAALPASTSGTQPYDYWGQGTQVTVSS”, for which the “polyreactivity (PSR sort gate)” value is reported as “low polyreactivity”. Regarding “QVQLVESGGGLVQAGGSLRLSCAASGRTFYGNAMGWYRQAPGKERELVAAITSGGGSTRYADSVKGRFTISRDNAKNSVYLQMNSLKPEDTAVYYCAALYWYEYTYLEYDYWGQGTQVTVSS”, the “polyreactivity (PSR sort gate)” value was “high polyreactivity”. “QVQLVESGGGLVQAGGSLRLSCAASGRTFYGNAMGWYRQAPGKERELVAAITSGGGSTRYADSVKGRFTISRDNAKNTVYLQMNSLKPEDTAVYYCNATLGNFGYRRYSGHTRYYYWGQGTQVTVSS”: the “polyreactivity (PSR sort gate)” value is “high polyreactivity”. With “QVQLVESGGGLVQAGGSLRLSCAASGRTFYGYAMGWYRQAPGKERELVAAISRRGGSTNYADSVKGRFTISRDNAQTTVYLQMNSLKPEDTAVYYCNKVVPHKPPTMDYWGQGTQVTVSS”, the “polyreactivity (PSR sort gate)” value is given as “high polyreactivity”. In the case of “QVQLVESGGGLVQAGGSLRLSCAASGRTFYGYAMGWYRQAPGKERELVAGITFRGSSTYYADSVKGRFTISRDNAKNTVYLQMNSLKPEDTAVYYCNVPYGNSHVGYDYWGQGTQVTVSS”, the “polyreactivity (PSR sort gate)” value is listed as “high polyreactivity”.
